From patent CN111423507A (CAS CENTER FOR EXCELLENCE IN MOLECULAR CELL SCIENCE, dated 2020) come the findings set out here.

For assay [1], the target named is A/HongKong/01/1968(H3N2)HA蛋白 (Influenza A virus …, UniProt Q91MA7 17-530). In words: ELISA, native HA coated at 1 ug/ml, antibody 5 ug/ml. (In general: An ELISA detects its analyte on a solid surface through an enzyme-linked reagent.)
Assay [2] has as its target 全长1968HongKong H3N2 HA (义翘神州 Cat:VG40116-NH, N端His标签, 293T表达) (Influenza A virus …, UniProt Q91MA7 17-566). In words: Western blot of full-length HA expressed in 293T cells.

Sequence of A/HongKong/01/1968(H3N2)HA蛋白 (Q91MA7 17-530 limits assumed): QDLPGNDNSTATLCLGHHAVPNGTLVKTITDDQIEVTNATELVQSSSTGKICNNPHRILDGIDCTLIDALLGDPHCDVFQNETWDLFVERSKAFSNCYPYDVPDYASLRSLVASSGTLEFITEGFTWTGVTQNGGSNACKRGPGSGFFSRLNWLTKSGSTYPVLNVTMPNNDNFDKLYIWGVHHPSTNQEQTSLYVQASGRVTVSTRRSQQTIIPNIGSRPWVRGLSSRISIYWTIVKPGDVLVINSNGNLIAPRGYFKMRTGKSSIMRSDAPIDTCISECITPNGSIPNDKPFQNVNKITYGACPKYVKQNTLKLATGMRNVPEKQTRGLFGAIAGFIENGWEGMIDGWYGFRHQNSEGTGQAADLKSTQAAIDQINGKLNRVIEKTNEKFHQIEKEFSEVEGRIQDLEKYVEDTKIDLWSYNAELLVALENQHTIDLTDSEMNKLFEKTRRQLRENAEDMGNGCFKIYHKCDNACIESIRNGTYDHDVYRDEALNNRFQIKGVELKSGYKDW
Sequence of 全长1968HongKong H3N2 HA (义翘神州 Cat:VG40116-NH, N端His标签, 293T表达) (Q91MA7 17-566 limits assumed): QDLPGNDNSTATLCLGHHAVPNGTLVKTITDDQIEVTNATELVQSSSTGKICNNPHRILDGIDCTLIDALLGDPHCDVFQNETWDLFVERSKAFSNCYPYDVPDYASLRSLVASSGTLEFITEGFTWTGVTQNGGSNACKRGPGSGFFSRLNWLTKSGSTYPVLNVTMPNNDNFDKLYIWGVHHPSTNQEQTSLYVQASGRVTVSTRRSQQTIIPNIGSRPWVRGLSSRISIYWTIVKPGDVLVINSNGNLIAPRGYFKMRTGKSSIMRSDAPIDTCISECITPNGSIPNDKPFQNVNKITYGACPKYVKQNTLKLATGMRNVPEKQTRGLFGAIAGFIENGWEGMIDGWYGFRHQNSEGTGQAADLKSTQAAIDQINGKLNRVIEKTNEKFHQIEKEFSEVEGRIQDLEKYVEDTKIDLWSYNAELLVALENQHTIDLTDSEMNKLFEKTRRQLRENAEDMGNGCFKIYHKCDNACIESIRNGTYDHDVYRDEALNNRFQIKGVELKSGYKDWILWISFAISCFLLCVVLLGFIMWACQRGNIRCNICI

B1: 12mAb (antibody, V domains shown)
VH: EVQLVESGGGLVQPGGSLRLSCAASGFTFSTYNMNWVRQAPGKGLEWLSYISTSSNTIYYADSVKGRFTISRDNAKNSLFLQMNSLRDEDTAVYYCARDRGCSSTNCYVVGYYFYGMDVWGQGTTVTVSS
VL: DIQMTQSPSSVSASVGDRVTITCRASQGISSYLAWYQLKPGRAPKLLIYGATRLQSGVPSRFSGSGSGTDFTLTISGLQPEDFATYHCQQADSFPLTFGQGTRLEIK
For the molecule B1, the binding result in assay [1] and in assay [2] was “binds” throughout.
